In patent US20190153112A1 (IMMUTEP S A S, published 2019):

Key:
[1] = target: human LAG-3 protein (Lymphocyte activation gene-3) on the cell surface (human) (UniProt P18627); test: flow cytometry on LAG-3-transfected CHO cells; antibody 20 ng/ml
[2] = target: IMP321 (recombinant soluble human LAG-3Ig fusion protein) (human) (UniProt P18627); test: FACS, LAG-3Ig-Alexa 488 (1 µg/ml) pre-incubated with antibody 297 ng/ml, then bound to Raji (MHC class II+) cells
[3] = target: human LAG-3 protein (Lymphocyte activation gene-3) on the cell surface (human) (UniProt P18627); test: flow cytometry on CD8+ cells of SEB-stimulated PBMCs (Donor 1); antibody 2326 ng/ml
[4] = target: human LAG-3 protein (Lymphocyte activation gene-3) on the cell surface (human) (UniProt P18627); test: flow cytometry on CD8+ cells of SEB-stimulated PBMCs (Donor 1); antibody 10000 ng/ml
[5] = target: human LAG-3 protein (Lymphocyte activation gene-3) on the cell surface (human) (UniProt P18627); test: flow cytometry on LAG-3-transfected CHO cells; antibody 10000 ng/ml
[6] = target: human LAG-3 protein (Lymphocyte activation gene-3) on the cell surface (human) (UniProt P18627); test: flow cytometry on LAG-3-expressing CHO cells, from Table 12
[7] = target: human LAG-3 protein (Lymphocyte activation gene-3) on the cell surface (human) (UniProt P18627); test: flow cytometry on LAG-3-expressing CHO cells, mean of four independent experiments
[8] = target: human LAG-3 protein (Lymphocyte activation gene-3) on the cell surface (human) (UniProt P18627); test: flow cytometry on LAG-3-transfected CHO cells; antibody 100 ng/ml
[9] = target: human LAG-3 protein (Lymphocyte activation gene-3) on the cell surface (human) (UniProt P18627); test: flow cytometry on CD4+ cells of SEB-stimulated PBMCs, mean of three donors
[10] = target: human LAG-3 protein (Lymphocyte activation gene-3) on the cell surface (human) (UniProt P18627); test: flow cytometry on LAG-3-transfected CHO cells; antibody 6 ng/ml
[11] = target: IMP321 (recombinant soluble human LAG-3Ig fusion protein) (human) (UniProt P18627); test: FACS, LAG-3Ig-Alexa 488 (1 µg/ml) pre-incubated with antibody 3300 ng/ml, then bound to Raji (MHC class II+) cells
[12] = target: human LAG-3 protein (Lymphocyte activation gene-3) on the cell surface (human) (UniProt P18627); test: flow cytometry on CD4+ cells of SEB-stimulated PBMCs (Donor 1); antibody 0 ng/ml (no-antibody background)
[13] = target: human LAG-3 protein (Lymphocyte activation gene-3) on the cell surface (human) (UniProt P18627); test: flow cytometry on LAG-3-transfected CHO cells; antibody 1 ng/ml
[14] = target: human LAG-3 protein (Lymphocyte activation gene-3) on the cell surface (human) (UniProt P18627); test: flow cytometry on CD4+ cells of SEB-stimulated PBMCs (Donor 1); antibody 126 ng/ml
[15] = target: human LAG-3 protein (Lymphocyte activation gene-3) on the cell surface (human) (UniProt P18627); test: flow cytometry on LAG-3-transfected CHO cells; antibody 500 ng/ml
[16] = target: human LAG-3 protein (Lymphocyte activation gene-3) on the cell surface (human) (UniProt P18627); test: flow cytometry on CD4+ cells of SEB-stimulated PBMCs (Donor 1); antibody 10000 ng/ml

human LAG-3 protein (Lymphocyte activation gene-3) on the cell surface (human), sequence (P18627 other isoform, or with tags, fused parts or gaps): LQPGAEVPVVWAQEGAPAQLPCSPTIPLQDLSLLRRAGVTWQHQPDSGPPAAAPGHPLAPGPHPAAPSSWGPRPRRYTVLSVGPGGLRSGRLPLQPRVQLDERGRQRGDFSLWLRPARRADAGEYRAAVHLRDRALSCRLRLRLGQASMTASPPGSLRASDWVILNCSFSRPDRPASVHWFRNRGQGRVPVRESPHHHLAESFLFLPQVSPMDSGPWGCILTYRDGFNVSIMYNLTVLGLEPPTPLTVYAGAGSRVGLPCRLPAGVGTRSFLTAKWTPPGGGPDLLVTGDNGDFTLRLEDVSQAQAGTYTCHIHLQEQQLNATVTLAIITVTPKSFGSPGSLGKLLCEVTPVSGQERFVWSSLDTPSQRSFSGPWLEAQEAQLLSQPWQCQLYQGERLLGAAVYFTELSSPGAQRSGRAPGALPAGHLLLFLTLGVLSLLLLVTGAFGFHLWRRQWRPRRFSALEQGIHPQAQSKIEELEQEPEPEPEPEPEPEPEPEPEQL
IMP321 (recombinant soluble human LAG-3Ig fusion protein) (human), sequence (P18627 23-450): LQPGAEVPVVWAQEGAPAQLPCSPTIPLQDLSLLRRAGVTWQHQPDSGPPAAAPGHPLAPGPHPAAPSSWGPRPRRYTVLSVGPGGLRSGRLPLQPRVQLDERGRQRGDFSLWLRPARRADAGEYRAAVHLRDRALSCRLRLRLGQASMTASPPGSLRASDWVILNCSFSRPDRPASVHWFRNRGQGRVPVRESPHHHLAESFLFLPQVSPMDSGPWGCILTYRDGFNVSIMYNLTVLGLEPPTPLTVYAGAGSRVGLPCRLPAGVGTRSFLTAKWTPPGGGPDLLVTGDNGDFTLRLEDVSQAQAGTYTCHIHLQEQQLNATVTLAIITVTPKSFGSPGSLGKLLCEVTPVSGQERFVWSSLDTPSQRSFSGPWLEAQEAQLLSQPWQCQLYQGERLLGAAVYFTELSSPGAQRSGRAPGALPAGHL

## antagonistic anti-LAG-3 mouse monoclonal antibody 17B4
[1]
  MFI: 1380 MFI
[2]
  MFI of sLAG-3Ig-Alexa 488: 73 MFI
[3]
  MFI: 4830 MFI
[4]
  MFI: 5140 MFI
[5]
  MFI: 6090 MFI
[6]
  EC50: 0.7 nM
[7]
  EC50: 0.7 nM
[8]
  MFI: 3170 MFI
[9]
  EC50: 0.8 nM
[10]
  MFI: 549 MFI
[11]
  MFI of sLAG-3Ig-Alexa 488: 13 MFI
[12]
  MFI: 106 MFI
[13]
  MFI: 247 MFI
[14]
  MFI: 1240 MFI
[15]
  MFI: 4760 MFI
[16]
  MFI: 1600 MFI
